Laboratory results reported in patent publication US20160146827.

What was measured:
[1] = system: Venus-thrombin-LUMP (LUMP fused to Venus via an 11-residue linker ASLVPRGSRGS that harbors a thrombin cleavage site)
[2] = system: mRuby-thrombin-fLov2 (fLov2 fused to mRuby via an 11-residue linker ASLVPRGSRGS that harbors a thrombin cleavage site)

Substance: thrombin protease
- FA value of LUMP in the intact substrate [1]: FA values for the 51-kDa LUMP-Venus substrate of 0.255±0.003
- FA value of LUMP in the proteolyzed sensor [1]: decreases to 0.166±0.001 in the proteolyzed sensor
- donor/acceptor ratio of fluorescence emission during proteolysis [1]: donor/acceptor ratio increasing ~4.7-fold
- fluorescence emission spectra against time after addition of thrombin [2]: dramatic increase in fLov2 fluorescence and attenuation of the sensitized mRuby fluorescence
